Test results: article PMC6901930

Biological target: Major capsid protein (MCP), Trx fusion (Singapore grouper iridovirus (SGIV-Gx), UniProt Q5YFJ3 1-463)
Test: EMSA
Conditions: protein: recombinant; tags: Trx-His (pET-32a), 68 kDa

B1: Q5c (ssDNA)
DNA: TATTCGGGTTATTGCTCCTCTTTATTGTCACCTGGATGTATGATCGTGTAG
binding result: binds
